Experimental data from patent US20230270636A1, “GOLD AND PALMITOYL PENTAPEPTIDE-4 NANOPARTICLES” (INFINITEC ACTIVOS, S.L., priority 2018, published 2023).
Where a SMILES comes first, the peptide text is derived from it. Where no end group is shown, it is not given here. The star is where a group is joined. Palmitoyl = CCCCCCCCCCCCCCCC(=O)*

What was measured:
[1] = Cutaneous penetration using Franz diffusion cells; type: in vitro ADME; conditions: pig skin, 20 h incubation; for Cutaneous penetration (skin layers reached): 32° C., receptor solution analysed; for Change in cutaneous penetration upon conjugating the peptide with gold nanoparticles: FIG. 1
Method: Cutaneous penetration was determined using Franz cells. The pig skin samples used in the experiments were cut into circles 3 cm in diameter. The pig skin was mounted on the receptor compartment of a Franz diffusion cell system with the stratum corneum facing up towards the donor compartment. 18 ml of phosphate-buffered saline (PBS) were used as receptor solution. An aliquot of the test samples (nanoparticles of Example 1 (GNP-P1), nanoparticles of Example 2 (GNP-P2), nanoparticles of Example 3 (GNP), formulation of peptide P1 of Example 4, formulation of peptide P2 of Example 5, mixture of nanoparticles and peptide P1 (GNP+P1) of Example 6 was applied on the pig skin. The Franz diffusion cells were mounted on an H+P Labortechnik Varimag Telesystem (Munich, Germany) and placed in a thermostatic bath (Haake).
Untreated skin control was also included. The Franz diffusion cells were kept at 32° C., and after 20 h of incubation, the receptor solution was analyzed by means of UV-visible absorption spectroscopy using a Shimadzu spectrophotometer UV-1800 (Parc Cientific of Barcelona) and quartz cuvettes (Hellma Analytics) to quantify the amount of gold nanoparticles present (GNP, GNP-P1, and GNP-P2). The amount of free peptide (P1, P2) was determined by means of HPLC, using a Waters 996 photodiode array detector instrument equipped with a Waters 2695 separation module and Millenium software. An Xbridge BEH130 C18 4.6×100 mm 3.5 μm reverse phase HPLC column by Waters was used. In both cases, UV detection was performed at 220 nm. Peptide P1 was analyzed with a mobile phase B gradient of 5 to 100% for 8 minutes at a flow rate of 1.0 ml/min, the retention time being 6.5 minutes. Peptide P2 was analyzed with a mobile phase B gradient of 0 to 20% for 8 minutes at a flow rate of 1.0 ml/min, the retention time being 1.5 minutes. The eluents used in both cases were: Mobile phase A: 0.045% of TFA/H2O, mobile phase B: 0.036% of TFA/ACN.

[2] = Nanoparticle size by dynamic light scattering (DLS); type: physicochemical; conditions: 1 mg/mL in water, 25° C.
Method: The size of the nanoparticles can be determined by means of conventional methods in the art, particularly by means of dynamic light scattering (DLS). First the samples are prepared to determine particle size. To that end, 1 mg is weighed if it is powder and it is suspended in 1 mL of milli-Q H2O. In the case of liquid samples, a 100 μL aliquot of the sample to which 900 μL of milli-Q H2O are added is collected with an automatic pipette. Then the particle size measurement is taken using quartz cuvettes and Zetasizer Nano ZS series equipment (Malvern Instruments) of the Instituto de Quimica Avanzada de Cataluña (Advanced Chemistry Institute of Catalonia), CSIC.
The size of the nanoparticles (GNP, GNP-P1, and GNP-P2) was determined by dynamic light scattering (DLS) for which quartz cuvettes and Zetasizer Nano ZS series equipment (Malvern Instruments, Instituto de Quimica Avanzada de Cataluña) were used. The preparation of the samples consists of 1 mg if it is powder and it is suspended in 1 mL of milli-Q H2O. In the case of liquid samples, a 100 μL aliquot of the sample to which 900 μL of milli-Q H2O are added is collected with an automatic pipette such that there is always a concentration of 1 mg/mL of sample. Then the particle size measurement is taken at a temperature of 25° C.

[3] = Concentration of peptide incorporated in nanoparticles by HPLC; type: physicochemical; conditions: UV 220 nm
Method: The concentration of the peptide (P1 or P2) incorporated in the nanoparticles (GNP-P1 and/or GNP-P2) was determined by HPLC, using a Waters 996 photodiode array detector instrument equipped with a Waters 2695 separation module and Millenium software. An Xbridge BEH130 C18 4.6×100 mm 3.5 μm reverse phase HPLC column by Waters was used. UV detection was performed at 220 nm, and a mobile phase B gradient of 5 to 100% was performed for 8 minutes at a flow rate of 1.0 ml/min. Under these conditions, the retention time being 6.4 min for both peptides P1 and P2. Mobile phase A: 0.045% of TFA/H2O, mobile phase B: 0.036% of TFA/ACN.

[4] = Zeta potential of nanoparticles (Zetasizer Nano ZS); type: physicochemical; conditions: 1 mg/mL in water, 25° C.
Method: The preparation of the samples for determining the Z potential consists of weighing 1 mg if it is powder and it is suspended in 1 mL of milli-Q H2O. Whereas in the case of liquid samples, a 100 μL aliquot of the sample to which 900 μL of milli-Q H2O are added is collected with an automatic pipette. Then the Z potential measurement is taken using DTS1070 plastic cuvettes and Zetasizer Nano ZS series equipment (Malvern Instruments) of the Instituto de Quimica Avanzada de Cataluña (Advanced Chemistry Institute of Catalonia), CSIC.
The Z potential of the nanoparticles synthesized was determined using DTS1070 plastic cuvettes and Zetasizer Nano ZS series equipment (Malvern Instruments, of the Instituto de Quimica Avanzada de Cataluña, CSIC). The preparation of the samples consists of 1 mg if it is powder and it is suspended in 1 mL of milli-Q H2O. In the case of liquid samples, a 100 μL aliquot of the sample to which 900 μL of milli-Q H2O are added is collected with an automatic pipette such that there is always a concentration of 1 mg/mL of sample. Then the Z potential measurement is taken at a temperature of 25° C.

| Molecule | Cutaneous penetration (skin layers reached) [1] | Nanoparticle diameter [2] | Change in cutaneous penetration upon conjugating the peptide with gold nanoparticles [1] | Maximum concentration of peptide in nanoparticles [3] [mg/mL] | Nanoparticle Zeta potential [4] [mV] |
| --- | --- | --- | --- | --- | --- |
| CCCCCCCCCCCCCCCC(=O)N[C@@H](CCCCN)C(=O)N[C@H](C(=O)N[C@H](C(=O)N[C@@H](CCCCN)C(=O)N[C@@H](CO)C(=O)O)[C@@H](C)O)[C@@H](C)O [Example P1, Palm-L-Lys-L-Thr-L-Thr-L-Lys-L-Ser-OH] (Palmitoyl-KTTKS-OH) | only penetrated the outermost layers external of the skin |  |  |  |  |
| GNP − P1: gold nanoparticles conjugated with the peptide of formula (I) wherein R is a palmitoyl moiety (Palm-SEQ ID NO: 1) (Palmitoyl-KTTKS; also: conjugated to gold nanoparticles) | penetration reached more internal layers such as the epidermis and dermis | 150-200 nm | considerable increase in penetration | 0.3 | −35 |
| GNP − P2: gold nanoparticles conjugated with the peptide of formula (II) (P2; Palm-SEQ ID NO: 2) (Palmitoyl-CKTTKSCTTKS; cysteine pairing not given here; also: conjugated to gold nanoparticles) |  | 150-200 nm |  | 0.3 | −59 |
| Palm-L-Cys-L-Lys-L-Thr-L-Thr-L-Lys-L-Ser-L-Cys-L-Thr-L-Thr-L-Lys-L-Ser-OH [Example P2] |  |  | increase in penetration is not observed |  |  |
